Data as given in paper PMC9638028, “Yeast Smy2 and its human homologs GIGYF1 and -2 regulate Cdc48/VCP function during transcription stress” (Cell Reports, 2022).
Where a chain is given by its changes, count along the chain named. Names may count otherwise. Each block holds one binder with its values, some of them ahead of it.

Target: T1, Cdc48-FLAG3 (S. cerevisiae, UniProt P25694 1-835)
T1 construct: Cdc48, S. cerevisiae; the results and the purification methods say it was purified from yeast; also called FLAG-tagged Cdc48; purified Cdc48; source: S. cerevisiae W303, expressed from the endogenous locus; in extract for the co-IP
Test: pull-down; GST, GST-GYF or GST-GAF on glutathione beads, 10-fold molar excess of Cdc48-Flag; 20 mM Tris pH 7.5, 200 mM NaCl, 0.05% Triton X-100, 15% glycerol, 75 ug/mL BSA; 2 h; western blot
Conditions: both partners purified

T1 sequence (P25694 whole entry): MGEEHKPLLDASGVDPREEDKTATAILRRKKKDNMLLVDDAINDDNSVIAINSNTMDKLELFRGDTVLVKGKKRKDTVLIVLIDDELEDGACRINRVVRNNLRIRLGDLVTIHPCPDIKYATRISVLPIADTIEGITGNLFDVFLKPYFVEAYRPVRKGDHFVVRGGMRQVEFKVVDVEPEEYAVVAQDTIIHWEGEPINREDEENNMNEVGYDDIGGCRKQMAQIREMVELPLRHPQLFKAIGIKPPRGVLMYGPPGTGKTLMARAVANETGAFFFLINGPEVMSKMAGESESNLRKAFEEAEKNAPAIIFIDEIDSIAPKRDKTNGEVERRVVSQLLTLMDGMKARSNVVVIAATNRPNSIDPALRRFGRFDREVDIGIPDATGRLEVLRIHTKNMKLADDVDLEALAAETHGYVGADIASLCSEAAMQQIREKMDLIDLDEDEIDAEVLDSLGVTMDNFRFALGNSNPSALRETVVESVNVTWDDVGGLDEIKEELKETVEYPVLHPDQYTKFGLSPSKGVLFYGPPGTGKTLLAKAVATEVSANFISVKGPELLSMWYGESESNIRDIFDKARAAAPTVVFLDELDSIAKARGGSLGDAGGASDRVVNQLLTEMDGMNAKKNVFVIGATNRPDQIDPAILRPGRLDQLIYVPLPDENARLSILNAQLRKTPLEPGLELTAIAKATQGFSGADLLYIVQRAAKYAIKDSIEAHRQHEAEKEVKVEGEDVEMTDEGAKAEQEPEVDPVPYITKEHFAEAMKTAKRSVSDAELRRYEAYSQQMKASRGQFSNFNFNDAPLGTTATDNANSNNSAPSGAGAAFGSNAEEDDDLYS

binding result: binds
B1: GST-Smy2 (205-261), GYF (domain or fragment, S. cerevisiae, UniProt P32909 205-261, looked up)
chain: ESSWRYIDTQGQIHGPFTTQMMSQWYIGGYFASTLQISRLGSTPETLGINDIFITLG
notes: Smy2, S. cerevisiae, amino acids 205-261 holding the GYF motif; Vector pGST 6p-1 / pGEX 6p-1; also called GST-GYF; GST-Smy_(205-261); source: bacterial expression (E. coli), purified on glutathione agarose beads

binding result: binds
B2: GST-Smy2 (205-261) Y234A, GAF (domain or fragment, S. cerevisiae, UniProt P32909 205-261, looked up)
chain: B1 chain with Y30A
notes: Smy2, S. cerevisiae, amino acids 205-261 with the GYF motif changed to GAF; also called GST-GAF; mutated (GAF) version; source: bacterial expression (E. coli), purified on glutathione agarose beads
